Assay results as given in PMC9002611.

Molecular target: Strep-tagged HypC_(H51A) (E. coli) (UniProt P0AAM3)
Assay: pull-down; single-step Strep-tactin affinity enrichment of the Strep-tagged chaperone from extracts of anaerobically grown SHH228 cells co-producing HypD; elution fractions (10 ug protein) on SDS-PAGE, Coomassie stain, densitometry (ImageQuant TL); apparent stoichiometries

- apparent stoichiometry with HypD, percent lower than for the native chaperone: 85 % lower
B1: HypD (untagged) (natural protein)
chain: MRFVDEYRAPEQVMQLIEHLRERASHLSYTAERPLRIMEVCGGHTHAIFKFGLDQLLPENVEFIHGPGCPVCVLPMGRIDTCVEIASHPEVIFCTFGDAMRVPGKQGSLLQAKARGADVRIVYSPMDALKLAQENPTRKVVFFGLGFETTMPTTAITLQQAKARDVQNFYFFCQHITLIPTLRSLLEQPDNGIDAFLAPGHVSMVIGTDAYNFIASDFHRPLVVAGFEPLDLLQGVVMLVQQKIAAHSKVENQYRRVVPDAGNLLAQQAIADVFCVNGDSEWRGLGVIESSGVHLTPDYQRFDAEAHFRPAPQQVCDDPRARCGEVLTGKCKPHQCPLFGNTCNPQTAFGALMVSSEGACAAWYQYRQQESEA
